Data as given in paper PMC1636435 (Nucleic Acids Research, 2006).

T1: RAD51AP1-C25 (C-terminal 25 residues of human RAD51AP1) (human, UniProt Q96B01-2 311-335)
T1 chain: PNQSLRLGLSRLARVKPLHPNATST

B1: human RAD51AP1 (Gal4 two-hybrid fusion, all of RAD51AP1) (natural protein)
chain: MVRPVRHKKPVNYSQFDHSDSDDDFVSATVPLNKKSRTAPKELKQDKPKPNLNNLRKEEIPVQEKTPKKRMALDDKLYQRDLEVALALSVKELPTVTTNVQNSQDKSIEKHGSSKIETMNKSPHISNCSVASDYLDLDKITVEDDVGGVQGKRKAASKAAAQQRKILLEGSDGDSANDTEPDFAPGEDSEDDSDFCESEDNDEDFSMRKSKVKEIKKKEVKVKSPVEKKEKKSKSKCNALVTSVDSAPAAVKSESQSLPKKVSLSSDTTRKPLEIRSPSAESKKPKWVPPAASGGSRSSSSPLVVVSVKSPNQSLRLGLSRLARVKPLHPNATST
B2: RAD51AP1-C89 (C-terminal 89 amino acids of human RAD51AP1) (domain or fragment)
chain: APAAVKSESQSLPKKVSLSSDTTRKPLEIRSPSAESKKPKWVPPAASGGSRSSSSPLVVVSVKSPNQSLRLGLSRLARVKPLHPNATST
B3: human RAD51 (Gal4 two-hybrid fusion) (natural protein)
chain: MAMQMQLEANADTSVEEESFGPQPISRLEQCGINANDVKKLEEAGFHTVEAVAYAPKKELINIKGISEAKADKILAEAAKLVPMGFTTATEFHQRRSEIIQITTGSKELDKLLQGGIETGSITEMFGEFRTGKTQICHTLAVTCQLPIDRGGGEGKAMYIDTEGTFRPERLLAVAERYGLSGSDVLDNVAYARAFNTDHQTQLLYQASAMMVESRYALLIVDSATALYRTDYSGRGELSARQMHLARFLRMLLRLADEFGVAVVITNQVVAQVDGAAMFAADPKKPIGGNIIAHASTTRLYLRKGRGETRICKIYDSPCLPEAEAMFAINADGVGDAKD

Key:
Assay in all cases: two-hybrid
[1] = biological target: human RAD51 (Gal4 two-hybrid fusion) (human) (UniProt Q06609)
[2] = biological target: Saccharomyces cerevisiae RAD51 (Gal4 two-hybrid fusion) (Saccharomyces cerevisiae) (UniProt P25454)
Chain of Saccharomyces cerevisiae RAD51 (Gal4 two-hybrid fusion) (Saccharomyces cerevisiae) (P25454 whole entry, the tested form may be a part): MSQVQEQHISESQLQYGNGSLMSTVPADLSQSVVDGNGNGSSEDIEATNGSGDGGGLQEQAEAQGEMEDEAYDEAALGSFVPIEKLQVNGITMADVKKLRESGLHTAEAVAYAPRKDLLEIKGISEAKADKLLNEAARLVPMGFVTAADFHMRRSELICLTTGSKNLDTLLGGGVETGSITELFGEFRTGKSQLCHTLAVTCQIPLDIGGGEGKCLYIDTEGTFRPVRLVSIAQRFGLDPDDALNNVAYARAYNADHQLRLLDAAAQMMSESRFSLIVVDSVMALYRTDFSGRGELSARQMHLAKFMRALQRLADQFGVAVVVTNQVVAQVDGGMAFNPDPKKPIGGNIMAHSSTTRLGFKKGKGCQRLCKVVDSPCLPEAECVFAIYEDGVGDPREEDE

[3] = biological target: human DMC1 (Gal4 two-hybrid fusion) (human) (UniProt Q14565)
Chain of human DMC1 (Gal4 two-hybrid fusion) (human) (Q14565 whole entry, the tested form may be a part): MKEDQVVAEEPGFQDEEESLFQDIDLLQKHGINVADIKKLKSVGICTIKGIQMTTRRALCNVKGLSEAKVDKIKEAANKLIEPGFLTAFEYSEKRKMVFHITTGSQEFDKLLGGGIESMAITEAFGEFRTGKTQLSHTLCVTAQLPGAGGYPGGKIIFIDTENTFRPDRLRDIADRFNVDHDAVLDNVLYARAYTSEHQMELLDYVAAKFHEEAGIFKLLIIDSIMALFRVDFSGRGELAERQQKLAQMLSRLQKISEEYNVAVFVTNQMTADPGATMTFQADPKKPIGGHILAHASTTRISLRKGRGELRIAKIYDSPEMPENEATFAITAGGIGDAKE

[4] = biological target: human RAD51AP1 (Gal4 two-hybrid fusion, all of RAD51AP1) (human) (UniProt Q96B01)
[5] = biological target: RAD51AP2-C33 (C-terminal 33 amino acids of human RAD51AP2) (human) (UniProt Q09MP3)
Chain of RAD51AP2-C33 (C-terminal 33 amino acids of human RAD51AP2) (human) (Q09MP3 whole entry): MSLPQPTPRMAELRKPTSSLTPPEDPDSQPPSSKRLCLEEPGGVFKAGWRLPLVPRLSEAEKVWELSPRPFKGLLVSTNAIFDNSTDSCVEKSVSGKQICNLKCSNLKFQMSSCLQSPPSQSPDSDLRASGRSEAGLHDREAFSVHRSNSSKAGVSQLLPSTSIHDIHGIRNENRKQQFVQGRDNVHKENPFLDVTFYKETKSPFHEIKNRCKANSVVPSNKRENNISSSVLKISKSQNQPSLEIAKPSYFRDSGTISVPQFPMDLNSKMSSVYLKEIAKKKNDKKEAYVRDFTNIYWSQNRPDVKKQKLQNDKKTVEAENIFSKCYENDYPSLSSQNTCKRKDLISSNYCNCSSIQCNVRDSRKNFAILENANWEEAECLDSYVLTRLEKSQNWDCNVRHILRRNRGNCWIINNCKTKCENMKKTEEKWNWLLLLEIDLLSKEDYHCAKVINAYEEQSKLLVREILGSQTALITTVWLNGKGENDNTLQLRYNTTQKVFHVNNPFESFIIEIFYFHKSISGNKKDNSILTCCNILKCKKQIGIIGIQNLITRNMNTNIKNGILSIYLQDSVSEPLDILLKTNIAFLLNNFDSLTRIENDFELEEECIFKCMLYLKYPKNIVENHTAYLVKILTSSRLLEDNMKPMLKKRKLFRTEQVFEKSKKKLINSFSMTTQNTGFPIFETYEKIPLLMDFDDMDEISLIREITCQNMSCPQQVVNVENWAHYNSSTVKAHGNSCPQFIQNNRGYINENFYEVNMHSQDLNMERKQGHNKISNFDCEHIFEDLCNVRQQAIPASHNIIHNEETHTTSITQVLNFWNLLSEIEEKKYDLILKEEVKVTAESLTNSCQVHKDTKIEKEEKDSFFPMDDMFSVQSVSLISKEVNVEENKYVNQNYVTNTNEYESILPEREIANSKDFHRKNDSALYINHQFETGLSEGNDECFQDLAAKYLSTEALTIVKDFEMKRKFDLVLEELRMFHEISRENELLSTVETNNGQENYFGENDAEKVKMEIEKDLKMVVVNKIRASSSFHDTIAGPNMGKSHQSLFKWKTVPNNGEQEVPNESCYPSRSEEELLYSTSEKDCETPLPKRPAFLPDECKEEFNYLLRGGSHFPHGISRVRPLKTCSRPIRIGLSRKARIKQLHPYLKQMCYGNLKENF

[6] = biological target: RAD51AP2-C92 (last 92 amino acids of human RAD51AP2) (human) (UniProt Q09MP3)
Chain of RAD51AP2-C92 (last 92 amino acids of human RAD51AP2) (human) (Q09MP3 1068-1159): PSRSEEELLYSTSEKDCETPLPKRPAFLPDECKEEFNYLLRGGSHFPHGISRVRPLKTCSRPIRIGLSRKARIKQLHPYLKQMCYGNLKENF

[7] = biological target: Two larger fragments, each containing RAD54 79-118
[8] = biological target: B3
[9] = biological target: T1, RAD51AP1-C25 (C-terminal 25 residues of …)
[10] = biological target: B1
[11] = biological target: B2

## RAD51AP2-C92 (last 92 amino acids of human RAD51AP2) (from UniProt Q09MP3 1068-1159) (domain or fragment)
[1]
  units of β-galactosidase (units of β-galactosidase): 143

## RAD51AP2-C321 (C-terminal 321 amino acids of human RAD51AP2) (from UniProt Q09MP3 839-1159) (domain or fragment)
[2]
  units of β-galactosidase (units of β-galactosidase): < 0.3
[3]
  units of β-galactosidase (units of β-galactosidase): < 0.3
[1]
  units of β-galactosidase (units of β-galactosidase): 301
[4]
  units of β-galactosidase (units of β-galactosidase): < 0.3

## human RAD51 (Gal4 two-hybrid fusion) (from UniProt Q06609 1-339) (natural protein)
[5]
  units of β-galactosidase (units of β-galactosidase): 395
[6]
  units of β-galactosidase (units of β-galactosidase): 521
[7]
  percent of the interaction of RAD54-N142 with RAD51: > 70%

## B1
[8]
  units of β-galactosidase: 111 units of β-galactosidase

## B2
[8]
  units of β-galactosidase: 24.6 units of β-galactosidase

## B3
[9]
  units of β-galactosidase: 473 units of β-galactosidase
[10]
  units of β-galactosidase: 590 units of β-galactosidase
[11]
  units of β-galactosidase: 420 units of β-galactosidase
